Values quoted from earlier work, collected in patent publication US20260091141A1, “GENE EDITING METHODS, SYSTEMS, AND COMPOSITIONS FOR TREATING SPINAL MUSCULAR ATROPHY” (The Broad Institute, Inc., priority 2023, published 2026).

System: DNA
Conditions: SpCas9 mutation relative to SEQ ID NO: 209; UniProtKB Q99ZW2 entry

B1: 175-307 deletion: SpCas9 mutation relative to SEQ ID NO: 209 (protein)
chain: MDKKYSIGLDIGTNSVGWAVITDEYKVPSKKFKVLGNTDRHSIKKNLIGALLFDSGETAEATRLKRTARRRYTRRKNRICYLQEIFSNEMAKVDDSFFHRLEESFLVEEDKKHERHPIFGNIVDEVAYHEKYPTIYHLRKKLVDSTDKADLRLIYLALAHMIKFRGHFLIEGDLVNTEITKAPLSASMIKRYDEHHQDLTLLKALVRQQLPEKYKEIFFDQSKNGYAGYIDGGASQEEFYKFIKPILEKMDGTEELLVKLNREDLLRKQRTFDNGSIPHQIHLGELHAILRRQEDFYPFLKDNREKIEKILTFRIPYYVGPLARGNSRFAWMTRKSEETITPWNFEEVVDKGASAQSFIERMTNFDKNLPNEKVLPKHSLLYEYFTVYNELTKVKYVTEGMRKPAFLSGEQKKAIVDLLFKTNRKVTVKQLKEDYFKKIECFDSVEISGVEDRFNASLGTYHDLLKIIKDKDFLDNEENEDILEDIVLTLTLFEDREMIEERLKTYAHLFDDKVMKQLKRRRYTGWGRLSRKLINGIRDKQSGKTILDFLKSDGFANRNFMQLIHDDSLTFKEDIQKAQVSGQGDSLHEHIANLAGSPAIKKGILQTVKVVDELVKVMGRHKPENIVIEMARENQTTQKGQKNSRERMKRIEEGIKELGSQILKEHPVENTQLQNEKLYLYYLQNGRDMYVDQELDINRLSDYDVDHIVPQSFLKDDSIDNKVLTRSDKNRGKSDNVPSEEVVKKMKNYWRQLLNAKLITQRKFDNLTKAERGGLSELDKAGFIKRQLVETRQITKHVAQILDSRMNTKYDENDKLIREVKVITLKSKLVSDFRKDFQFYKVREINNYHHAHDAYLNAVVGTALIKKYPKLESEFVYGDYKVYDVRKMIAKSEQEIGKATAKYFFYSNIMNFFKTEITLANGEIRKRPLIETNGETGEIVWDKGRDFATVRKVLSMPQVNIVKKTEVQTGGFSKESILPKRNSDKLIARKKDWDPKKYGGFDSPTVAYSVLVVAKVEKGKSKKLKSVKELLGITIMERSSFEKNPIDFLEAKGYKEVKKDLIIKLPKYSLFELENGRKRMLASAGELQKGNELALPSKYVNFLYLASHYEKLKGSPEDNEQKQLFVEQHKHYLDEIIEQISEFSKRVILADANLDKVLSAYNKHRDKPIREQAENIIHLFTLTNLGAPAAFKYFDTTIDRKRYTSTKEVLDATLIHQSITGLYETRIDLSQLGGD
modifications: serotype M1; Streptococcus pyogenes
In the case of B1, the “Function/Characteristic (as reported)” value is given as “About 50% decreased DNA cleavage”.
